Data taken from article PMC8187593 (2021).

B1: vitronectin (pVN) (protein)
chain: DQESCKGRCTDGFIAERKCQCDELCSYYQSCCTDYVAECKPQVTRGDVFLQPDDEYRAYDYHEETRHNTSVQEEQRIPVLLAKTEETPVLKPEEEAPPPGPQTDDLGVPEEELCSGKPFDAFTNLKNGSVFAFRGLYCYELDEKAVRPGYPKLIQDVWGIKGPIDAAFTRINCQGKTYLFKGSQYWRFDDGVLDPNYPREISEGFKGIPDDVDAALALPAHSYSGRERVYFFKGKQYWEYVFQQQPSREECEGSSPSDVFAHFALMQRDSWEDIFRLLFWSHSFGGAIEPRVISQDWLGLPEQVDAAMAGQIYISGSALKPSQPKMTKSARRSGKRYRSRRGRGRGRGHSRSQKSHRQSRSTWLPWFSSEETGPGGYNYDDYKMDWLVPATCEPIQSVYFFSGEEYYRVNLRTQRVDTVTPPYPRSIAQYWLGCPVPDQK
B2: vitronectin (hVN) (protein)
chain: DQESCKGRCTEGFNVDKKCQCDELCSYYQSCCTDYTAECKPQVTRGDVFTMPEDEYTVYDDGEEKNNATVHEQVGGPSLTSDLQAQSKGNPEQTPVLKPEEEAPAPEVGASKPEGIDSRPETLHPGRPQPPAEEELCSGKPFDAFTDLKNGSLFAFRGQYCYELDEKAVRPGYPKLIRDVWGIEGPIDAAFTRINCQGKTYLFKGSQYWRFEDGVLDPDYPRNISDGFDGIPDNVDAALALPAHSYSGRERVYFFKGKQYWEYQFQHQPSQEECEGSSLSAVFEHFAMMQRDSWEDIFELLFWGRTSAGTRQPQFISRDWHGVPGQVDAAMAGRIYISGMAPRPSLAKKQRFRHRNRKGYRSQRGHSRGRNQNSRRPSRATWLSLFSSEESNLGANNYDDYRMDWLVPATCEPIQSVFFFSGDKYYRVNLRTRRVDTVDPPYPRSIAQYWLGCPAPGHL

Molecular target: T1, cathepsin K mature active enzyme (Homo sapiens, UniProt P43235)
T1 chain: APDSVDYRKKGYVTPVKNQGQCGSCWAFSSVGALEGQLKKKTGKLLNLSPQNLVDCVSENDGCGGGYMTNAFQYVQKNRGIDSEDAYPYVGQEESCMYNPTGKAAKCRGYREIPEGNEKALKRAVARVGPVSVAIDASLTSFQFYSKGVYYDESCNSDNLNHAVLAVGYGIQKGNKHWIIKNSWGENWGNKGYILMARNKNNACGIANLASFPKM
Assay: SPR

| Binder | Kd [nM] |
| --- | --- |
| B1 | 4.2 |
| B2 | 1.99 |
